This note sets out measurements from patent publication US20110046207.

As a reminder, the Kd is the free concentration of one partner at which half of the binding sites on the other are occupied at equilibrium, for simple one-to-one binding. Read a high Kd as a looser complex.

The target in this series is T1, biotinylated human D-C5a (mirror-image C5a) (Homo sapiens) (UniProt P01031).
T1 sequence: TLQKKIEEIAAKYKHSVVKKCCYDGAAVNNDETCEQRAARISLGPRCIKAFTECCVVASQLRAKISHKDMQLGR
The experiment in a line: pulldown.

Sequence “AGCGUGCUCGUCCGAUUGGCGGCACCCUUGCGGGACUGGGGAGUACGCU [172-D7-003]” showed a Kd (U to C at 3' end of 5'-terminal stretch) of 372 nM.
On to “AGCGUGCUUGUCCGAUUGGCGGCACCCUUGCGGGACUGGGGAGUACGCU [172-D7-000]”, for which, for the setting “37 C, 1 mM MgCl2, 1 mM CaCl2”, the Kd was determined as 30 nM.
In the case of “GCUGAACACGCCGCGUAGGACCCAAUGGGUAGAAUGGGCAGC [179-A3-015]”, for the setting “reference for type C ranking”, the Kd was greater than 7.2 nM.
Sequence “GCUGGGCGUGUUUACUUGCUUAAUAGGGGGCCCAGC [185-H3-001]” returned a Kd (37 C, 1 mM MgCl2, 1 mM CaCl2) of 5 nM.
Still for that read-out and setting: under “GUACUGCGUUCGGACGUGGCAUGUUCCUUGACAAACGGUUGGCAGUAC [182-E5]” stands 2.4 nM.
Regarding “GUGCUGAACACGCCGCGUAGGACUUCAAUGGAGUAGAAUGGGCAGCAC [179-A3]”, the Kd (37 C, 1 mM MgCl2, 1 mM CaCl2) worked out at 7.2 nM.
Regarding “GUGCUGCGUUCGGACGUGGCAUGUUCCUUGACAAACGGUUGGCAGCAC [182-C5]”, the Kd (37 C, 1 mM MgCl2, 1 mM CaCl2) came to 2.2 nM.
The sequence “GUGCUGGGUUCGGACGUGGCAUGUUCCUUGAUAAACGGUUGCCAGCAC [182-A8]” came in with a Kd (37 C, 1 mM MgCl2, 1 mM CaCl2) of 3.2 nM.
For the sequence “GUGCUUGUCCGAUUGGCGGCACCCUUGCGGGACUGGGGAGUAC [172-D7-002]”, the Kd (six base pair terminal helix) came to 108 nM.
